Some results are limits rather than exact numbers.

The text below walks through data of PMC11566906, “Transcription factor PbrERF114 is involved in the regulation of ethylene synthesis during pear fruit ripening”.

The target in data set [1] is T1, PbrERF114 (pear, cultivar Cuiguan?, UniProt A0A5H2MWQ4 1-250). Nature of the data set: BLI; saturated at 8382 nM; sentence names PbrERF24-His, but context and legend are PbrERF114; BLI: 137 mM NaCl, 4.3 mM Na2HPO4, 2.7 mM KCl, 1.4 mM KH2PO4, 0.02% Tween-20, pH 7.2 (PBS), streptavidin sensors, temperature not given; EMSA: LightShift Chemiluminescent EMSA kit, buffer not given. As to conditions: protein: recombinant; tags: His; pCold-TF vector (trigger factor fusion implied); label: biotin. Background: In BLI a coated tip is dipped into the sample, and binding shifts an interference pattern.
T1 sequence (A0A5H2MWQ4 entry or part of it): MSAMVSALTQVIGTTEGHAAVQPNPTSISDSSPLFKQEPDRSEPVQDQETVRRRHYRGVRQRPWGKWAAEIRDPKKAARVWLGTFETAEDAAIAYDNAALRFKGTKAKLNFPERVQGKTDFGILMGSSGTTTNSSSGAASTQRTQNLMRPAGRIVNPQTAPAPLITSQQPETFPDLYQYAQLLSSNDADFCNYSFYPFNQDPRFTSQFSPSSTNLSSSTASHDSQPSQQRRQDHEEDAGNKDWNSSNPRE

The target in data set [2] is T1, PbrERF114. Nature of the data set: EMSA; signal decreased with 10x, 50x, 200x cold probe; BLI: 137 mM NaCl, 4.3 mM Na2HPO4, 2.7 mM KCl, 1.4 mM KH2PO4, 0.02% Tween-20, pH 7.2 (PBS), streptavidin sensors, temperature not given; EMSA: LightShift Chemiluminescent EMSA kit, buffer not given. As to conditions: protein: recombinant; tags: His; pCold-TF vector (trigger factor fusion implied); label: biotin. (Mobility shift assays separate free from complexed probe on a gel.)

B1: PbrERF24 promoter probe (dsDNA)
DNA 1: CCAGTTTACAATGGTGGCCAAGATTGTAAT
DNA 2: ATTACAATCTTGGCCACCATTGTAAACTGG
In the case of B1, the Kd in the data set with PbrERF114 [1] is below 1000 nM.

B2: PbrACS3 promoter probe (PbrERF114 EMSA) (dsDNA)
DNA 1: TTACCATCTTAGGTGGCAGATGAGTTGGAC
DNA 2: GTCCAACTCATCTGCCACCTAAGATGGTAA
For B2, the binding result with PbrERF114 [2] was “binds”.

The Kd is the concentration at which binding is half-saturated.
